Kd and percent decrease of LRP1 isolated on proto-heme–human HPX Affi-Gel 15 with 500 nM RAP data for two substances are collected here from publication PMC12690290.

Assay [1] has as its target LRP1 (Homo sapiens) (UniProt Q07954). Kind of assay: surface plasmon resonance. The following applies: cited from earlier work.
The target in assay [2] is Low-density lipoprotein receptor 1 (low-density lipoprotein-related protein 1) (human (endogenous in HepG2 and primary human hepatocytes)) (UniProt Q07954). The assay is described as follows: affinity purification with mass spectrometry; as a6, RAP (500 nM) added as competitor to human hepatocyte extract and heme–HPX Affi-Gel 15; amount of receptor isolated.

hemopexin (from UniProt P02790): the dissociation constant Kd in assay [1] is 4 nM.

In the case of “RAP (receptor associated protein) added at 500 nM (from UniProt P30533 35-357) (natural protein)”, the percent decrease of LRP1 isolated on proto-heme–human HPX Affi-Gel 15 with 500 nM RAP in assay [2] worked out at 50%.
